Assay [1] deals with recombinant mouse IL-18 protein (mouse) (UniProt P70380).
In assay [2] the target is recombinant human IL-18 (human) (UniProt Q14116). In words: cell-based or functional assay.
Chain of recombinant human IL-18 (human) (Q14116 37-193 limits assumed): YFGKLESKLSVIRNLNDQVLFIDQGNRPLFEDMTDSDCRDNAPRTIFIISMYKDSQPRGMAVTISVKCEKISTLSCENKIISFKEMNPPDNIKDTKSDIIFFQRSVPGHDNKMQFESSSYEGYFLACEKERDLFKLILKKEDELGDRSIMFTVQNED

Chain of recombinant mouse IL-18 protein (mouse) (P70380 36-192 limits assumed): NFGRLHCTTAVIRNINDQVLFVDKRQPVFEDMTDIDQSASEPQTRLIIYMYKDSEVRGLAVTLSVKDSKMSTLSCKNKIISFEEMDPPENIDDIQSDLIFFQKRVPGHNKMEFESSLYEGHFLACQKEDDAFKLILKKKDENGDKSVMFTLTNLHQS

Regarding “hIL18BP-His(SinoBio.) (from UniProt O95998)”, the IC50 (read off the curve); mouse IL-18-induced IFN-γ secretion by mouse CD4+ T cells in assay [1] worked out at 1 nM.

Regarding “recombinant human interleukin-18-binding protein with C-terminal His-tag (hIL18BP-his8) (from UniProt O95998 31-194)”, in assay [1], the IC50 (read off the curve); mouse IL-18-induced IFN-γ secretion by mouse CD4+ T cells is 0.3 nM. Further, in assay [2], the IC50 of inhibition of IL-18-induced IFN-γ production in KG-1 cells is 0.024 nM.

The record behind these values is patent publication US20230357340A1.
